Assay results from US20200079833A1 (AstraZeneca / MedImmune, published 2020).
Starred links: 1 amine or outer side, 2 acyl side, 3 side chain; linkers in the order of their positions; H or OH if unused. Non-standard residues stand in square brackets, D forms with d. Groups on a side chain read outwards from the residue. No end group written: not given here. *: point of attachment. γGlu = O=C(O)[C@H](CCC(=O)[*:2])N[*:1]; Palmitoyl = CCCCCCCCCCCCCCCC(=O)*; αMeF = C[C@](N)(Cc1ccccc1)C(=O)O; αMeK = C[C@](N)(CCCCN)C(=O)O; αMeS = C[C@](N)(CO)C(=O)O; Aib = CC(C)(N)C(=O)O

T1: GLP-1R (INS1e assay) (UniProt P32301 22-463, limits assumed)
T1 sequence (looked up): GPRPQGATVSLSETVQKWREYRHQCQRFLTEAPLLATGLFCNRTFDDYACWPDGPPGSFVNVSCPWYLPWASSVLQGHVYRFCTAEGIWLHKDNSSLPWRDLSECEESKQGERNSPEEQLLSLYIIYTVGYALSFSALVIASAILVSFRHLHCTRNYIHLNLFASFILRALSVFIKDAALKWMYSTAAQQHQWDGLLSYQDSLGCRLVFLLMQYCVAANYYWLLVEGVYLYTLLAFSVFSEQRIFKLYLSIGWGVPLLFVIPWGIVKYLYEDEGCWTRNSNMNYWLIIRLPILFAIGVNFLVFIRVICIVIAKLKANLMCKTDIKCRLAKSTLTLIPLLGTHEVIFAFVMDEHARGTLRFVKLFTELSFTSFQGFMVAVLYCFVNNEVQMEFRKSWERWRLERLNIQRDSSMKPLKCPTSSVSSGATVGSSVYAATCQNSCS

B1: SEQ ID NO 78 (peptide)
peptide: H[Aib]EGS[αMeF]TSDV[αMeS]S[αMeF]LEGEAA[αMeK]EK([γGlu-Palmitoyl])IA[αMeF]VV[αMeK]GG-NH2
modifications: N-terminus assumed
SMILES: CCCCCCCCCCCCCCCC(=O)N[C@@H](CCC(=O)NCCCC[C@H](NC(=O)[C@H](CCC(=O)O)NC(=O)[C@](C)(CCCCN)NC(=O)[C@H](C)NC(=O)[C@H](C)NC(=O)[C@H](CCC(=O)O)NC(=O)CNC(=O)[C@H](CCC(=O)O)NC(=O)[C@H](CC(C)C)NC(=O)[C@](C)(Cc1ccccc1)NC(=O)[C@H](CO)NC(=O)[C@](C)(CO)NC(=O)[C@@H](NC(=O)[C@H](CC(=O)O)NC(=O)[C@H](CO)NC(=O)[C@@H](NC(=O)[C@](C)(Cc1ccccc1)NC(=O)[C@H](CO)NC(=O)CNC(=O)[C@H](CCC(=O)O)NC(=O)C(C)(C)NC(=O)[C@@H](N)Cc1c[nH]cn1)[C@@H](C)O)C(C)C)C(=O)N[C@H](C(=O)N[C@@H](C)C(=O)N[C@@](C)(Cc1ccccc1)C(=O)N[C@H](C(=O)N[C@H](C(=O)N[C@@](C)(CCCCN)C(=O)NCC(=O)NCC(N)=O)C(C)C)C(C)C)[C@@H](C)CC)C(=O)O
B2: SEQ ID NO 83 (peptide)
peptide: H[Aib]EGS[αMeF]TSDV[αMeS]S[αMeF]LEGK([γGlu-Palmitoyl])AA[αMeK]E[αMeF]IA[αMeF]VV[αMeK]GG-NH2
modifications: N-terminus assumed
SMILES: CCCCCCCCCCCCCCCC(=O)N[C@@H](CCC(=O)NCCCC[C@H](NC(=O)CNC(=O)[C@H](CCC(=O)O)NC(=O)[C@H](CC(C)C)NC(=O)[C@](C)(Cc1ccccc1)NC(=O)[C@H](CO)NC(=O)[C@](C)(CO)NC(=O)[C@@H](NC(=O)[C@H](CC(=O)O)NC(=O)[C@H](CO)NC(=O)[C@@H](NC(=O)[C@](C)(Cc1ccccc1)NC(=O)[C@H](CO)NC(=O)CNC(=O)[C@H](CCC(=O)O)NC(=O)C(C)(C)NC(=O)[C@@H](N)Cc1c[nH]cn1)[C@@H](C)O)C(C)C)C(=O)N[C@@H](C)C(=O)N[C@@H](C)C(=O)N[C@@](C)(CCCCN)C(=O)N[C@@H](CCC(=O)O)C(=O)N[C@@](C)(Cc1ccccc1)C(=O)N[C@H](C(=O)N[C@@H](C)C(=O)N[C@@](C)(Cc1ccccc1)C(=O)N[C@H](C(=O)N[C@H](C(=O)N[C@@](C)(CCCCN)C(=O)NCC(=O)NCC(N)=O)C(C)C)C(C)C)[C@@H](C)CC)C(=O)O
B3: SEQ ID NO 79 (peptide)
peptide: H[Aib]EGS[αMeF]TSDV[αMeS]S[αMeF]LEGEAA[αMeK]K([γGlu-Palmitoyl])[αMeF]IA[αMeF]VV[αMeK]GG-NH2
modifications: N-terminus assumed
SMILES: CCCCCCCCCCCCCCCC(=O)N[C@@H](CCC(=O)NCCCC[C@H](NC(=O)[C@](C)(CCCCN)NC(=O)[C@H](C)NC(=O)[C@H](C)NC(=O)[C@H](CCC(=O)O)NC(=O)CNC(=O)[C@H](CCC(=O)O)NC(=O)[C@H](CC(C)C)NC(=O)[C@](C)(Cc1ccccc1)NC(=O)[C@H](CO)NC(=O)[C@](C)(CO)NC(=O)[C@@H](NC(=O)[C@H](CC(=O)O)NC(=O)[C@H](CO)NC(=O)[C@@H](NC(=O)[C@](C)(Cc1ccccc1)NC(=O)[C@H](CO)NC(=O)CNC(=O)[C@H](CCC(=O)O)NC(=O)C(C)(C)NC(=O)[C@@H](N)Cc1c[nH]cn1)[C@@H](C)O)C(C)C)C(=O)N[C@@](C)(Cc1ccccc1)C(=O)N[C@H](C(=O)N[C@@H](C)C(=O)N[C@@](C)(Cc1ccccc1)C(=O)N[C@H](C(=O)N[C@H](C(=O)N[C@@](C)(CCCCN)C(=O)NCC(=O)NCC(N)=O)C(C)C)C(C)C)[C@@H](C)CC)C(=O)O
B4: SEQ ID NO 86 (peptide)
peptide: H[Aib]EGS[αMeF]TSDV[αMeS]S[αMeF]K([γGlu-Palmitoyl])EGEAA[αMeK]E[αMeF]IA[αMeF]VV[αMeK]GG-NH2
modifications: N-terminus assumed
SMILES: CCCCCCCCCCCCCCCC(=O)N[C@@H](CCC(=O)NCCCC[C@H](NC(=O)[C@](C)(Cc1ccccc1)NC(=O)[C@H](CO)NC(=O)[C@](C)(CO)NC(=O)[C@@H](NC(=O)[C@H](CC(=O)O)NC(=O)[C@H](CO)NC(=O)[C@@H](NC(=O)[C@](C)(Cc1ccccc1)NC(=O)[C@H](CO)NC(=O)CNC(=O)[C@H](CCC(=O)O)NC(=O)C(C)(C)NC(=O)[C@@H](N)Cc1c[nH]cn1)[C@@H](C)O)C(C)C)C(=O)N[C@@H](CCC(=O)O)C(=O)NCC(=O)N[C@@H](CCC(=O)O)C(=O)N[C@@H](C)C(=O)N[C@@H](C)C(=O)N[C@@](C)(CCCCN)C(=O)N[C@@H](CCC(=O)O)C(=O)N[C@@](C)(Cc1ccccc1)C(=O)N[C@H](C(=O)N[C@@H](C)C(=O)N[C@@](C)(Cc1ccccc1)C(=O)N[C@H](C(=O)N[C@H](C(=O)N[C@@](C)(CCCCN)C(=O)NCC(=O)NCC(N)=O)C(C)C)C(C)C)[C@@H](C)CC)C(=O)O
B5: SEQ ID NO 82 (peptide)
peptide: H[Aib]EGS[αMeF]TSDV[αMeS]S[αMeF]LEGEK([γGlu-Palmitoyl])A[αMeK]E[αMeF]IA[αMeF]VV[αMeK]GG-NH2
modifications: N-terminus assumed
SMILES: CCCCCCCCCCCCCCCC(=O)N[C@@H](CCC(=O)NCCCC[C@H](NC(=O)[C@H](CCC(=O)O)NC(=O)CNC(=O)[C@H](CCC(=O)O)NC(=O)[C@H](CC(C)C)NC(=O)[C@](C)(Cc1ccccc1)NC(=O)[C@H](CO)NC(=O)[C@](C)(CO)NC(=O)[C@@H](NC(=O)[C@H](CC(=O)O)NC(=O)[C@H](CO)NC(=O)[C@@H](NC(=O)[C@](C)(Cc1ccccc1)NC(=O)[C@H](CO)NC(=O)CNC(=O)[C@H](CCC(=O)O)NC(=O)C(C)(C)NC(=O)[C@@H](N)Cc1c[nH]cn1)[C@@H](C)O)C(C)C)C(=O)N[C@@H](C)C(=O)N[C@@](C)(CCCCN)C(=O)N[C@@H](CCC(=O)O)C(=O)N[C@@](C)(Cc1ccccc1)C(=O)N[C@H](C(=O)N[C@@H](C)C(=O)N[C@@](C)(Cc1ccccc1)C(=O)N[C@H](C(=O)N[C@H](C(=O)N[C@@](C)(CCCCN)C(=O)NCC(=O)NCC(N)=O)C(C)C)C(C)C)[C@@H](C)CC)C(=O)O
B6: SEQ ID NO 84 (peptide)
peptide: H[Aib]EGS[αMeF]TSDV[αMeS]S[αMeF]LEK([γGlu-Palmitoyl])EAA[αMeK]E[αMeF]IA[αMeF]VV[αMeK]GG-NH2
modifications: N-terminus assumed
SMILES: CCCCCCCCCCCCCCCC(=O)N[C@@H](CCC(=O)NCCCC[C@H](NC(=O)[C@H](CCC(=O)O)NC(=O)[C@H](CC(C)C)NC(=O)[C@](C)(Cc1ccccc1)NC(=O)[C@H](CO)NC(=O)[C@](C)(CO)NC(=O)[C@@H](NC(=O)[C@H](CC(=O)O)NC(=O)[C@H](CO)NC(=O)[C@@H](NC(=O)[C@](C)(Cc1ccccc1)NC(=O)[C@H](CO)NC(=O)CNC(=O)[C@H](CCC(=O)O)NC(=O)C(C)(C)NC(=O)[C@@H](N)Cc1c[nH]cn1)[C@@H](C)O)C(C)C)C(=O)N[C@@H](CCC(=O)O)C(=O)N[C@@H](C)C(=O)N[C@@H](C)C(=O)N[C@@](C)(CCCCN)C(=O)N[C@@H](CCC(=O)O)C(=O)N[C@@](C)(Cc1ccccc1)C(=O)N[C@H](C(=O)N[C@@H](C)C(=O)N[C@@](C)(Cc1ccccc1)C(=O)N[C@H](C(=O)N[C@H](C(=O)N[C@@](C)(CCCCN)C(=O)NCC(=O)NCC(N)=O)C(C)C)C(C)C)[C@@H](C)CC)C(=O)O
B7: SEQ ID NO 80 (peptide)
peptide: H[Aib]EGS[αMeF]TSDV[αMeS]S[αMeF]LEGEAAK([γGlu-Palmitoyl])E[αMeF]IA[αMeF]VV[αMeK]GG-NH2
modifications: N-terminus assumed
SMILES: CCCCCCCCCCCCCCCC(=O)N[C@@H](CCC(=O)NCCCC[C@H](NC(=O)[C@H](C)NC(=O)[C@H](C)NC(=O)[C@H](CCC(=O)O)NC(=O)CNC(=O)[C@H](CCC(=O)O)NC(=O)[C@H](CC(C)C)NC(=O)[C@](C)(Cc1ccccc1)NC(=O)[C@H](CO)NC(=O)[C@](C)(CO)NC(=O)[C@@H](NC(=O)[C@H](CC(=O)O)NC(=O)[C@H](CO)NC(=O)[C@@H](NC(=O)[C@](C)(Cc1ccccc1)NC(=O)[C@H](CO)NC(=O)CNC(=O)[C@H](CCC(=O)O)NC(=O)C(C)(C)NC(=O)[C@@H](N)Cc1c[nH]cn1)[C@@H](C)O)C(C)C)C(=O)N[C@@H](CCC(=O)O)C(=O)N[C@@](C)(Cc1ccccc1)C(=O)N[C@H](C(=O)N[C@@H](C)C(=O)N[C@@](C)(Cc1ccccc1)C(=O)N[C@H](C(=O)N[C@H](C(=O)N[C@@](C)(CCCCN)C(=O)NCC(=O)NCC(N)=O)C(C)C)C(C)C)[C@@H](C)CC)C(=O)O

Target: T1, GLP-1R (INS1e assay)
Assay: cell-based or functional assay

Row | Binder | INS1e assay EC50 GLP-1 R n1 | INS1e assay EC50 GLP-1 R n2 | INS1e assay EC50 Mean pM GLP-1R
1 | B1 | 0.345 nM | 0.346 nM | 346 pM
2 | B2 | 0.137 nM | 0.25 nM | 194 pM
3 | B3 | 0.289 nM | 0.527 nM | 408 pM
4 | B4 | 0.0453 nM | 0.0845 nM | 65 pM
5 | B5 | 0.151 nM | 0.238 nM | 195 pM
6 | B6 | 0.455 nM | 0.665 nM | 560 pM
7 | B7 | 3.89 nM | 1.33 nM | 2610 pM
